The values that follow are results of earlier work, collected in PMC6205161.

This data set concerns the target apo-GLRX5 (Homo sapiens) (UniProt Q86SX6). Nature of the data set: thermophoresis.
UniProt Q86SX6, sequence (Q86SX6 32-157): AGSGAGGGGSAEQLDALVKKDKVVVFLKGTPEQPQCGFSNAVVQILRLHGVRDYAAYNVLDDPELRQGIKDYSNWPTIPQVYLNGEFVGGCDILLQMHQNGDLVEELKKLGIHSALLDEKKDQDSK

BOLA3 (from UniProt Q53S33): the dissociation constant (Kd) is 3000 nM. For the substance BOLA1 (from UniProt Q9Y3E2), the dissociation constant (Kd) was 3000 nM.
